Values of other authors as cited in PMC12990809.

What was measured:
Assay in all cases: pulldown
Details in all cases: 20 nM protein, 1.5 uM RNA pool; 20 mM HEPES pH 7.8, 70 mM KCl, 10 mM NaCl, 10% glycerol, 2 mM DTT, 0.1 ug/uL BSA; 30 min, 4 C (protocol of this paper; not …); cited from earlier work
YBX2 (Homo sapiens) = YBX2 (Homo sapiens) (UniProt Q9Y2T7)
TIA1 (Homo sapiens) = biological target: T1, TIA1 (Homo sapiens) (UniProt P31483)
T1 sequence: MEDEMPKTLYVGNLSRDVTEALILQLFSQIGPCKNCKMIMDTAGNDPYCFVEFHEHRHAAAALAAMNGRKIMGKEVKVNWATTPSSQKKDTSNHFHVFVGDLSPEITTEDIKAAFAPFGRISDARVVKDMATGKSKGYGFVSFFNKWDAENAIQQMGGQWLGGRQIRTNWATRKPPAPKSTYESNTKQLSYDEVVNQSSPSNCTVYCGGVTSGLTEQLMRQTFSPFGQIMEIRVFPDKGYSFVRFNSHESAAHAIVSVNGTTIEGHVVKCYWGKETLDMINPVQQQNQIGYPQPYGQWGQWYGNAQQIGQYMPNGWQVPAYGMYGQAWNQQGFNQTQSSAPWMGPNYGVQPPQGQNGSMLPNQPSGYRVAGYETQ

[1] = biological target: unc-75 (Caenorhabditis elegans) (UniProt G5EE68)
[2] = biological target: T2, orb2 (Drosophila melanogaster) (UniProt Q9VSR3)
T2 sequence: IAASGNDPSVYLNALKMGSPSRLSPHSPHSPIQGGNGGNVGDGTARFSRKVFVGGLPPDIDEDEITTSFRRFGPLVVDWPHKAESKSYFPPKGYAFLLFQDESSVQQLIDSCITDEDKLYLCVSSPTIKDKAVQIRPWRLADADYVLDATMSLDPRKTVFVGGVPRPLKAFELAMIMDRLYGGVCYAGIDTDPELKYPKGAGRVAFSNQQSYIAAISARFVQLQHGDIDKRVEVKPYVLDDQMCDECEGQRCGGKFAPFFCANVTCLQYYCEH

[3] = biological target: T3, sm (Drosophila melanogaster) (UniProt A4UZQ5)
T3 sequence: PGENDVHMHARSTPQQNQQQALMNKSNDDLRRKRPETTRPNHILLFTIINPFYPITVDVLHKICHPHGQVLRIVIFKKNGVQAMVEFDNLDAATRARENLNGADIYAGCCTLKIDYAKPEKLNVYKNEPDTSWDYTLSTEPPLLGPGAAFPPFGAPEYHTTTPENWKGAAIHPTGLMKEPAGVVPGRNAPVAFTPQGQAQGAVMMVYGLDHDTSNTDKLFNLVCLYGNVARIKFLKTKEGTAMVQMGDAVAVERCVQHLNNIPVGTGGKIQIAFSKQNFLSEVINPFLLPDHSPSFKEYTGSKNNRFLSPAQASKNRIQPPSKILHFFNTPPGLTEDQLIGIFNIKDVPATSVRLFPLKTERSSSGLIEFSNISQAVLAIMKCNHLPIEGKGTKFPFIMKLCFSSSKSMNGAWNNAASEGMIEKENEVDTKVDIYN

[4] = biological target: T4, elav (Drosophila melanogaster) (UniProt P16914)
T4 sequence: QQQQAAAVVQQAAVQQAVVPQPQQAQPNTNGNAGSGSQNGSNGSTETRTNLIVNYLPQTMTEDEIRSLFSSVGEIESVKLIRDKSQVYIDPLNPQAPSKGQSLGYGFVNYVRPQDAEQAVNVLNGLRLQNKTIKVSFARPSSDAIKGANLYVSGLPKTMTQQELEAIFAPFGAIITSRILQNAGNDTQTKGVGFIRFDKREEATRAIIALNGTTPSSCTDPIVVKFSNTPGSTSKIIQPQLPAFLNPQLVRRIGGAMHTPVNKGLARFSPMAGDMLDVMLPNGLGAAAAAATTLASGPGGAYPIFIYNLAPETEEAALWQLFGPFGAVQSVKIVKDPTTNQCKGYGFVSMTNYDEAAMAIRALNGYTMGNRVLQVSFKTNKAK

[5] = biological target: T5, Sxl (Drosophila melanogaster) (UniProt P19339)
T5 sequence: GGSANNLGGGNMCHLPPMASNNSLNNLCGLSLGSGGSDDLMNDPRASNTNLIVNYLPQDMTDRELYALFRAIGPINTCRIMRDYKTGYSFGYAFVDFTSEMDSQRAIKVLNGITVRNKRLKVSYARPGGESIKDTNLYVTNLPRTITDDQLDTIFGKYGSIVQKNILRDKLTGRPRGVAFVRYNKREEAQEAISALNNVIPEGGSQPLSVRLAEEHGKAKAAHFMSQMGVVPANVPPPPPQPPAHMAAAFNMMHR

[6] = biological target: T6, how (Drosophila melanogaster) (UniProt O01367)
T6 sequence: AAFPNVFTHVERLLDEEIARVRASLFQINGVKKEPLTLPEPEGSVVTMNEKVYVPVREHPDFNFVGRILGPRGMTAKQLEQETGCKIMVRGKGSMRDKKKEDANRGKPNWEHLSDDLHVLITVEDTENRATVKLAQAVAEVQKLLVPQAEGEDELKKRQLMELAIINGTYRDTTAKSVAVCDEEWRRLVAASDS

[7] = biological target: T7, A2bp1 (Drosophila melanogaster) (UniProt Q9VT99)
T7 sequence: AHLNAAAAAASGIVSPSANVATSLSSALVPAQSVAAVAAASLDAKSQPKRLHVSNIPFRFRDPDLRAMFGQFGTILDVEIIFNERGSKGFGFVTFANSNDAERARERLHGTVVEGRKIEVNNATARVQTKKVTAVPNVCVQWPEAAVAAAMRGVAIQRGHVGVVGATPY

[8] = biological target: T8, Cnot4 (Drosophila melanogaster) (UniProt M9MRH8)
T8 sequence: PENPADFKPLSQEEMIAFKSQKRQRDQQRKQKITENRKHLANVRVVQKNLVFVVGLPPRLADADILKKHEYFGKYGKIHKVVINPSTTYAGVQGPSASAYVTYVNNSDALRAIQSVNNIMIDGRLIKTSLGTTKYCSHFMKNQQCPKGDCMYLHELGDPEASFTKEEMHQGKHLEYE

[9] = biological target: T9, msi (Drosophila melanogaster) (UniProt H9ZJL0)
T9 sequence: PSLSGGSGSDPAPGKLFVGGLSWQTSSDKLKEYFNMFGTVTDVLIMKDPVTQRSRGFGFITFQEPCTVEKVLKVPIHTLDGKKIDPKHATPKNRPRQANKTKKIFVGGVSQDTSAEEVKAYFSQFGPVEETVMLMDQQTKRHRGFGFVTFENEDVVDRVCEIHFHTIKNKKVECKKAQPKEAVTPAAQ

[10] = biological target: fne (Drosophila melanogaster) (UniProt Q7KIS3)
ZCRB1 (Homo sapiens) = ZCRB1 (Homo sapiens) (UniProt Q8TBF4)
YBX1 (Homo sapiens) = YBX1 (Homo sapiens) (UniProt P67809)
[11] = biological target: Hrb98DE (Drosophila melanogaster) (UniProt P07909)
ZC3H10 (Homo sapiens) = biological target: T10, ZC3H10 (Homo sapiens) (UniProt Q96K80)
T10 sequence: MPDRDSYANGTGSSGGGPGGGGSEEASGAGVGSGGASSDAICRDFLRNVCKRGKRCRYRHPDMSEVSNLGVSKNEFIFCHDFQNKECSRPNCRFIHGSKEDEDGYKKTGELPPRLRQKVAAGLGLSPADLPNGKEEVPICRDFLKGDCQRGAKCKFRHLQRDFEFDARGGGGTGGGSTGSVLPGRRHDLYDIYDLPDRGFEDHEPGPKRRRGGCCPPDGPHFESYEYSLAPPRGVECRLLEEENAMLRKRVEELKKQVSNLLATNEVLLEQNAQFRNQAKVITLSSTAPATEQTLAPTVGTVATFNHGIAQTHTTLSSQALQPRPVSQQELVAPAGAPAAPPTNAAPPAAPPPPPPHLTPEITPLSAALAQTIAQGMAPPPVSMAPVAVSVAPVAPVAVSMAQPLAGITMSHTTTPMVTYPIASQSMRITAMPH

SRSF7 (Homo sapiens) = biological target: T11, SRSF7 (Homo sapiens) (UniProt Q16629)
T11 sequence: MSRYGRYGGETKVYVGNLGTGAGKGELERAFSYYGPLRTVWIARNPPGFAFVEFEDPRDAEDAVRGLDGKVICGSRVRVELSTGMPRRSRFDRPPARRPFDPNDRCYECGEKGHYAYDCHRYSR

[12] = biological target: T12, VTS1 S437M (Saccharomyces cerevisiae) (UniProt Q08831)
T12 sequence: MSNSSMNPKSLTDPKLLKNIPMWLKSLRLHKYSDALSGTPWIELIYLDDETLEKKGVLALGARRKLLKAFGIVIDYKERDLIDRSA

SNRNP70 (Homo sapiens) = SNRNP70 (Homo sapiens) (UniProt P08621)
U2AF2 (Homo sapiens) = U2AF2 (Homo sapiens) (UniProt P26368)
[13] = biological target: T13, mxt (Drosophila melanogaster) (UniProt Q9VR35)
T13 sequence: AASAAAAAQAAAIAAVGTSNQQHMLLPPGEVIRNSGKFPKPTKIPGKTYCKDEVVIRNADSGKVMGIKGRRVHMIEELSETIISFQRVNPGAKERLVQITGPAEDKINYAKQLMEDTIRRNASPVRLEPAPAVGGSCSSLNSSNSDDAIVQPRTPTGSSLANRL

[14] = biological target: T14, bru-3 (Drosophila melanogaster) (UniProt Q7K305)
T14 sequence: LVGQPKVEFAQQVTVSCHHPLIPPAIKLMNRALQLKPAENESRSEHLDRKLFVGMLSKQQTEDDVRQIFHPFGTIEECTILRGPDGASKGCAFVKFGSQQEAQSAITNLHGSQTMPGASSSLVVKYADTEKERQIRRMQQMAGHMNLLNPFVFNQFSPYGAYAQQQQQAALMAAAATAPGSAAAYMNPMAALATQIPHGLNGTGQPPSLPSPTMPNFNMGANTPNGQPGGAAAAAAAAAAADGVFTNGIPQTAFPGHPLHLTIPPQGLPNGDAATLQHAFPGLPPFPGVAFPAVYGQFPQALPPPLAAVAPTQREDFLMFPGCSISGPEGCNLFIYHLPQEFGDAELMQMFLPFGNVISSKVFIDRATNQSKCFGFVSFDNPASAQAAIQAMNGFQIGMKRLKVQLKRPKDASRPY

[15] = biological target: U2af50 (Drosophila melanogaster) (UniProt Q24562)
TARDBP (Homo sapiens) = TARDBP (Homo sapiens) (UniProt Q13148)
SRSF1 (Homo sapiens) = SRSF1 (Homo sapiens) (UniProt Q07955)
[16] = biological target: T15, tra2 (Drosophila melanogaster) (UniProt P19018)
T15 sequence: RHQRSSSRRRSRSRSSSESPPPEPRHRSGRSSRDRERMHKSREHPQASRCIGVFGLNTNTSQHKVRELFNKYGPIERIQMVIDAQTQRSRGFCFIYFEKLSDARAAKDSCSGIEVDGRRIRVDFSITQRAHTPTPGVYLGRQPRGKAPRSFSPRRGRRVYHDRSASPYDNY

SNRPA (Homo sapiens) = SNRPA (Homo sapiens) (UniProt P09012)
Chain of SNRPA (Homo sapiens) (P09012 whole entry): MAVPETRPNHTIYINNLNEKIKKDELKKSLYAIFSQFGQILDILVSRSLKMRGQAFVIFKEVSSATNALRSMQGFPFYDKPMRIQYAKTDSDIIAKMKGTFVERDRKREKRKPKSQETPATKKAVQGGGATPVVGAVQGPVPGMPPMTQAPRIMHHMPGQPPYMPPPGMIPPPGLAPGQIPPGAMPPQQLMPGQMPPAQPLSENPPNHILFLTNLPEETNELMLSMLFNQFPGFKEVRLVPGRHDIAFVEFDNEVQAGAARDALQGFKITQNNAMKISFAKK

Chain of SNRNP70 (Homo sapiens) (P08621 55-225): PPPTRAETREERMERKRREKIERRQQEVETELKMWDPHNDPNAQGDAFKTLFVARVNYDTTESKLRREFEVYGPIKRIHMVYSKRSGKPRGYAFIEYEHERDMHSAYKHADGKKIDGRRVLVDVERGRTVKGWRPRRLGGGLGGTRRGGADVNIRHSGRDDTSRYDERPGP
Chain of YBX2 (Homo sapiens) (Q9Y2T7 whole entry): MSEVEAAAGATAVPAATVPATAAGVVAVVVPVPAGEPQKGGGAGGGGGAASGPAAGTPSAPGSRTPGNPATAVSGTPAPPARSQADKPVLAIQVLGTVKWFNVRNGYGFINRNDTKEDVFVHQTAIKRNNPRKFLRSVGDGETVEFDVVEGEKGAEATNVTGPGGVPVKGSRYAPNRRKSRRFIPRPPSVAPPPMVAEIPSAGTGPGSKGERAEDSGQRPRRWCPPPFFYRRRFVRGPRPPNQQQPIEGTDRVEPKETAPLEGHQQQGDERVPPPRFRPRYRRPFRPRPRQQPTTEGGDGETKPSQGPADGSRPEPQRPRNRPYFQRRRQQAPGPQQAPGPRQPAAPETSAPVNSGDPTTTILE
Chain of SRSF1 (Homo sapiens) (Q07955 1-202): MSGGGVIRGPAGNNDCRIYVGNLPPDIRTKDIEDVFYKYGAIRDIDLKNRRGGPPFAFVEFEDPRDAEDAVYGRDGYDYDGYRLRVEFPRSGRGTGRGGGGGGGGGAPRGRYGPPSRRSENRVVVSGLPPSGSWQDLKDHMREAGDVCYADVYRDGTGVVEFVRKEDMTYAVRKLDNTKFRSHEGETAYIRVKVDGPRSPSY
Chain of TARDBP (Homo sapiens) (Q13148 56-315): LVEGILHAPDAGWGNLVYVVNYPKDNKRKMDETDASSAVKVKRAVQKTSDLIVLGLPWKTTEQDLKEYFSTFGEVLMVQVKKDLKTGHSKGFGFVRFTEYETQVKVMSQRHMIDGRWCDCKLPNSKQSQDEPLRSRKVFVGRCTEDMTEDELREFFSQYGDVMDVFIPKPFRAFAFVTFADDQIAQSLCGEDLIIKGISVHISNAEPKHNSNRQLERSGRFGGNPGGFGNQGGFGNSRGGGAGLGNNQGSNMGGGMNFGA
Chain of fne (Drosophila melanogaster) (Q7KIS3 entry or part of it): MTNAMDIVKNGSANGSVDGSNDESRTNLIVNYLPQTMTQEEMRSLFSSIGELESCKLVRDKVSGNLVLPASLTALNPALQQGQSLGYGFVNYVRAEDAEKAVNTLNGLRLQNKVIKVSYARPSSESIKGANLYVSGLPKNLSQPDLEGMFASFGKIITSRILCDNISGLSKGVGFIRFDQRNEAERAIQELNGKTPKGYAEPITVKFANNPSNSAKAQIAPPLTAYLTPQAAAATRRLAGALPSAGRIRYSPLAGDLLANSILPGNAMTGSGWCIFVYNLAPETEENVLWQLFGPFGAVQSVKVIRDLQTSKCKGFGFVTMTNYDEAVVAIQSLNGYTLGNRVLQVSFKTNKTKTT
Chain of Hrb98DE (Drosophila melanogaster) (P07909 whole entry): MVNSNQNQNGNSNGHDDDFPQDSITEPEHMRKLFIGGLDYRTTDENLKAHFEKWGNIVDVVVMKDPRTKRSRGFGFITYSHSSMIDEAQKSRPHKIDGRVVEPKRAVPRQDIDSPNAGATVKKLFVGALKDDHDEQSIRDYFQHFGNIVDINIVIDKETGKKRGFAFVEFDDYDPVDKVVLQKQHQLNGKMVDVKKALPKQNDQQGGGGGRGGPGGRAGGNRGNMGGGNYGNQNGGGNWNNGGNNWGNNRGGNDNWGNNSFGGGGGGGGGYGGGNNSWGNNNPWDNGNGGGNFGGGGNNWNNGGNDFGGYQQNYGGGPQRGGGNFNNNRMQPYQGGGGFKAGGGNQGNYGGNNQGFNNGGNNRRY
Chain of U2AF2 (Homo sapiens) (P26368 101-475): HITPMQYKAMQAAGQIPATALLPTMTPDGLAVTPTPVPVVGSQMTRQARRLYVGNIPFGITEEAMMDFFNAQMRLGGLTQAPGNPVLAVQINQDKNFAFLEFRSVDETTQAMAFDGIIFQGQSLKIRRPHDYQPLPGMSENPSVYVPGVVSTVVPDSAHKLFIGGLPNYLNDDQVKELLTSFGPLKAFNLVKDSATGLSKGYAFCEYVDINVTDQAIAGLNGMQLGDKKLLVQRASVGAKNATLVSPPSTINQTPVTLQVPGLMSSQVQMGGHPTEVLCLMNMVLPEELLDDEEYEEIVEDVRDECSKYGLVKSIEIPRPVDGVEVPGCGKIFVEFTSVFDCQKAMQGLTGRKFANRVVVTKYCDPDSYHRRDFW
Chain of ZCRB1 (Homo sapiens) (Q8TBF4 1-132): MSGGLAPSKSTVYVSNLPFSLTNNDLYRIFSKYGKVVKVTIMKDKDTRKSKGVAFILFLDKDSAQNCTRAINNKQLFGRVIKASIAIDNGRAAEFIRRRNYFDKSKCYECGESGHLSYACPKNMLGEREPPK
Chain of YBX1 (Homo sapiens) (P67809 whole entry): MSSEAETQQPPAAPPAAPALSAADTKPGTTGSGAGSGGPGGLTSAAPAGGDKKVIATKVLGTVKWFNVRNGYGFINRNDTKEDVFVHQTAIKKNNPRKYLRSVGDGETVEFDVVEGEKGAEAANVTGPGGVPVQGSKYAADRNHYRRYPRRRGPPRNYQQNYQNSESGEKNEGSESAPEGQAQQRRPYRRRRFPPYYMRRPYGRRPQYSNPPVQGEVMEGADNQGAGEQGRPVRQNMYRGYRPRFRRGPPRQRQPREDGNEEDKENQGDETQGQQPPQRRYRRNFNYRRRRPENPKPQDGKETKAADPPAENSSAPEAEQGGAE
Chain of U2af50 (Drosophila melanogaster) (Q24562 45-416): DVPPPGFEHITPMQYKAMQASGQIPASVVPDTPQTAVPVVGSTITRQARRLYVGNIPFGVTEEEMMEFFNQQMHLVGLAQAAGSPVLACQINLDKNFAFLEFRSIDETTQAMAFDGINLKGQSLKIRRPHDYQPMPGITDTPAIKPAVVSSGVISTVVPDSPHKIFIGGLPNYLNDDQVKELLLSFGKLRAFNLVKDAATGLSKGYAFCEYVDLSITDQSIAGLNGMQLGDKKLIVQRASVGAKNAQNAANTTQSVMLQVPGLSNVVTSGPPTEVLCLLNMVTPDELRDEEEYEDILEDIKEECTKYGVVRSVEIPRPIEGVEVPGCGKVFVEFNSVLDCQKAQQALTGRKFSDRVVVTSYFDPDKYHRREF

## AACANC [RNAcompete motif RNCMPT00084]
YBX2 (Homo sapiens)
  binding signal (z-score (mean of top ten 7-mers)): 9.95

## UUUUUU [RNAcompete motif RNCMPT00165]
TIA1 (Homo sapiens)
  binding signal (z-score (mean of top ten 7-mers)): 9.41

## UGUUGUG [RNAcompete motif RNCMPT00081]
[1]
  binding signal (z-score (mean of top ten 7-mers)): 10.4

## UUUUUUG [RNAcompete motif RNCMPT00126]
[2]
  binding signal (z-score (mean of top ten 7-mers)): 15.9

## AGACAC [RNAcompete motif RNCMPT00069]
[3]
  binding signal (z-score (mean of top ten 7-mers)): 11.2

## UUUUUUU [RNAcompete motif RNCMPT00121]
[4]
  binding signal (z-score (mean of top ten 7-mers)): 17.2

## UUUUUUU [RNAcompete motif RNCMPT00119]
[5]
  binding signal (z-score (mean of top ten 7-mers)): 17.2

## ACUAAC [RNAcompete motif RNCMPT00118]
[6]
  binding signal (z-score (mean of top ten 7-mers)): 25.4

## UGCAUG [RNAcompete motif RNCMPT00123]
[7]
  binding signal (z-score (mean of top ten 7-mers)): 21.3

## AGACACA [RNAcompete motif RNCMPT00008]
[8]
  binding signal (z-score (mean of top ten 7-mers)): 12.4

## GUAGUU [RNAcompete motif RNCMPT00099]
[9]
  binding signal (z-score (mean of top ten 7-mers)): 11.6

## UUUUUUU [RNAcompete motif RNCMPT00120]
[10]
  binding signal (z-score (mean of top ten 7-mers)): 12.7

## GAAUUAAG [RNAcompete motif RNCMPT00087]
ZCRB1 (Homo sapiens)
  binding signal (z-score (mean of top ten 7-mers)): 12

## AACAUC [RNAcompete motif RNCMPT00083]
YBX1 (Homo sapiens)
  binding signal (z-score (mean of top ten 7-mers)): 14.5

## GGUAGGG [RNAcompete motif RNCMPT00096]
[11]
  binding signal (z-score (mean of top ten 7-mers)): 21.8

## GCAGCGCG [RNAcompete motif RNCMPT00085]
ZC3H10 (Homo sapiens)
  binding signal (z-score (mean of top ten 7-mers)): 16.6

## GACGACG [RNAcompete motif RNCMPT00073]
SRSF7 (Homo sapiens)
  binding signal (z-score (mean of top ten 7-mers)): 11.3

## GCUGGCC [RNAcompete motif RNCMPT00111]
[12]
  binding signal (z-score (mean of top ten 7-mers)): 24.3

## AUCAAG [RNAcompete motif RNCMPT00070]
SNRNP70 (Homo sapiens)
  binding signal (z-score (mean of top ten 7-mers)): 8.16

## UUUUUCC [RNAcompete motif RNCMPT00079]
U2AF2 (Homo sapiens)
  binding signal (z-score (mean of top ten 7-mers)): 17

## CAACGA [RNAcompete motif RNCMPT00007]
[13]
  binding signal (z-score (mean of top ten 7-mers)): 13.9

## GUGUUGU [RNAcompete motif RNCMPT00122]
[14]
  binding signal (z-score (mean of top ten 7-mers)): 20.4

## UUUUUCC [RNAcompete motif RNCMPT00080]
[15]
  binding signal (z-score (mean of top ten 7-mers)): 12.8

## GAAUGA [RNAcompete motif RNCMPT00076]
TARDBP (Homo sapiens)
  binding signal (z-score (mean of top ten 7-mers)): 9.33

## GAGGAGC [RNAcompete motif RNCMPT00163]
SRSF1 (Homo sapiens)
  binding signal (z-score (mean of top ten 7-mers)): 11.3

## AGAAGA [RNAcompete motif RNCMPT00078]
[16]
  binding signal (z-score (mean of top ten 7-mers)): 7.09

## UUGCACA [RNAcompete motif RNCMPT00071]
SNRPA (Homo sapiens)
  binding signal (z-score (mean of top ten 7-mers)): 10.9
